Test results taken from US20170210813A1 (Regeneron, published 2017).
Each block holds one binder with its values, some of them ahead of it.

Legend:
[1] = biological target: T1, hPDGFRb.mmh (human, UniProt P09619 33-531); assay: SPR, mAb captured, 25 C
T1 construct: Soluble monomeric construct; also called soluble human PDGFR-beta.mmh
Procedure: (§1) Antibodies, expressed as either mouse Fc (prefix H1M; H2M) or human Fc (prefix H4H), were captured on their respective anti-Fc sensor surfaces (Mab capture format). […] Kinetic association (kₐ) and dissociation (kd) rate constants were determined by processing and fitting the data to a 1:1 binding model using Scrubber 2.0 curve fitting software.

[2] = biological target: T2, Macaca fascicularis PDGFRb.mmh (Macaca fascicularis); assay: SPR, mAb captured, 25 C
T2 construct: Soluble monomeric construct; also called mfPDGFRb.mmh
T2 chain: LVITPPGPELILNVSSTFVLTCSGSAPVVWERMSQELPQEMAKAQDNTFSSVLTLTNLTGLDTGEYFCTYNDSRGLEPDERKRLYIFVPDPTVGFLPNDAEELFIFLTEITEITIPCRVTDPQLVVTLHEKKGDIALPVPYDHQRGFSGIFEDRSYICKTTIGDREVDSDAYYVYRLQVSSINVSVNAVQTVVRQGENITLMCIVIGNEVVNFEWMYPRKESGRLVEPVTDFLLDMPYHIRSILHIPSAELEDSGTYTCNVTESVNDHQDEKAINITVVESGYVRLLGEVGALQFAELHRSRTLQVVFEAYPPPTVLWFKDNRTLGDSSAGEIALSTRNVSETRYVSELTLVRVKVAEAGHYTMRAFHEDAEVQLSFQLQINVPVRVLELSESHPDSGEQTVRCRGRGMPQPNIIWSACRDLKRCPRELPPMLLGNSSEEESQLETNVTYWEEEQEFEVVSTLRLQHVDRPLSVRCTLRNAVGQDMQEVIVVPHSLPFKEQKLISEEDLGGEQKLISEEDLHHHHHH
Procedure: as §1

[3] = biological target: T3, human PDGFRb.mFc (human); assay: SPR, mAb captured, 25 C
T3 construct: Soluble dimeric construct with mouse Fc; also called hPDGFRb.mFc; soluble human PDGFR-beta.mFc
T3 chain: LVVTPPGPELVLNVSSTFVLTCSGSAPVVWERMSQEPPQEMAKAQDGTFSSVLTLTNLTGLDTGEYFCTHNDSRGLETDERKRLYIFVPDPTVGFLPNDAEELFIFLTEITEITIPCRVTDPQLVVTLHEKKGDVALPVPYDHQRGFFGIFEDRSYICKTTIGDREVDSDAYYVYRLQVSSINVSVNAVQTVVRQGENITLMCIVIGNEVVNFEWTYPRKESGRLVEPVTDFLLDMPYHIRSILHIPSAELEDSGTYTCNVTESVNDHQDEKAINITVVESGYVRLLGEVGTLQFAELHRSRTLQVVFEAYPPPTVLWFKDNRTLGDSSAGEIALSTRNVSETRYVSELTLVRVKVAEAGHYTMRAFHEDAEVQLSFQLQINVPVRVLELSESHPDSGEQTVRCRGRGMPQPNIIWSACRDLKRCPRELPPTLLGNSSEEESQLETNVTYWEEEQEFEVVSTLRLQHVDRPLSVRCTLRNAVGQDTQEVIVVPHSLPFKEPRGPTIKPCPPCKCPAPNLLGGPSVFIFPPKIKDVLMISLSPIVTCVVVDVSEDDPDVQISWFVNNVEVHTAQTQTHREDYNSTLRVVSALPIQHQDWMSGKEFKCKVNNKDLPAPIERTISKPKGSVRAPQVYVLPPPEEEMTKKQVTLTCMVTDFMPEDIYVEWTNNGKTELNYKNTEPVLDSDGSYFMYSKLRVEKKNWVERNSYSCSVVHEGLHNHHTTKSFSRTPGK
Procedure: as §1

[4] = biological target: T4, full length human PDGFR-beta on HEK293 cells (human, UniProt P09619 33-1106); assay: cell-based or functional assay
[5] = biological target: T1, hPDGFRb.mmh; assay: SPR, mAb captured, 37 C
Procedure: as §1

[6] = biological target: T1, hPDGFRb.mmh; assay: blocking ELISA, biot-hPDGFRb.mmh to coated PDGF-BB
Procedure: The equilibrated PDGFR-beta/antibody solutions were added to ligand-coated plates, allowed to incubate for 1 hr, and washed. Levels of bound biot-hPDGFR-beta.mmh were detected using HRP conjugated streptavidin. Data were analyzed using Prism software and IC₅₀ values were calculated as the amount of antibody required to achieve 50% reduction of hPDGFR-beta-mmh bound to ligand. Maximum blocking values were also calculated and reflect the ability of the antibody to block relative to baseline. The absorbance measured at the constant amount of 250 pM biot-hPDGFR-beta-mmh on the dose curve is defined as 0% blocking and the absorbance with no added PDGFR-beta is defined as 100%. The absorbance of the wells containing the highest antibody concentration determined the maximum blocking percent.

[7] = biological target: T1, hPDGFRb.mmh; assay: Octet BLI cross-competition, 25 C; hPDGFRb.mmh on anti-Penta-His tips pre-saturated with mAb-1 H4H3305N (row 8)
Procedure: (§2) A cross-competition assay was conducted to assess the ability of select antibodies to compete with one another for binding to human PDGFR-beta. […] Each PDGFR-beta.mmh-coated sensor tip was saturated for 5 min with a first anti-PDGFR-beta antibody (Mab #1; 50 μg/mL). Next, each sensor tip was saturated with a solution of a second anti-PDGFR-beta antibody (Mab #2). The real time response of Mab #2 binding to PDGR-beta.mmh pre-complexed with Mab #1 was then monitored. All assays were performed at 25° C. with a flow rate of 1000 rpm on an Octet RED384 biosensor in Octet HBST buffer according to manufacturer's instructions (ForteBio Corp., Menlo Park, Calif.). Results are illustrated in FIG. 2.

[8] = biological target: T1, hPDGFRb.mmh; assay: Octet BLI cross-competition, 25 C; hPDGFRb.mmh on anti-Penta-His tips pre-saturated with mAb-1 H4H3107S (row 7)
Procedure: as §2

[9] = biological target: T4, full length human PDGFR-beta on HEK293 …; assay: cell-based or functional assay; remark: listed apart in the source
[10] = biological target: T1, hPDGFRb.mmh; assay: Octet BLI cross-competition, 25 C; hPDGFRb.mmh on anti-Penta-His tips pre-saturated with mAb-1 H4H3099S (row 6)
Procedure: as §2

[11] = biological target: T1, hPDGFRb.mmh; assay: Octet BLI cross-competition, 25 C; hPDGFRb.mmh on anti-Penta-His tips pre-saturated with mAb-1 H4H3365N (row 2)
Procedure: as §2

[12] = biological target: T1, hPDGFRb.mmh; assay: Octet BLI cross-competition, 25 C; hPDGFRb.mmh on anti-Penta-His tips pre-saturated with mAb-1 H4H3374N (row 3)
Procedure: as §2

[13] = biological target: T1, hPDGFRb.mmh; assay: Octet BLI cross-competition, 25 C; hPDGFRb.mmh on anti-Penta-His tips pre-saturated with mAb-1 H4H3103S (row 4)
Procedure: as §2

[14] = biological target: T5, human PDGFRb.hFc (human); assay: SPR, mAb captured, 25 C
T5 construct: Soluble dimeric construct with human Fc; also called hPDGFRb.hFc
Procedure: as §1

[15] = biological target: T1, hPDGFRb.mmh; assay: Octet BLI cross-competition, 25 C; hPDGFRb.mmh on anti-Penta-His tips pre-saturated with mAb-1 Control I (row 1)
Procedure: as §2

[16] = biological target: T5, human PDGFRb.hFc; assay: SPR, mAb captured, 37 C
Procedure: as §1

[17] = biological target: T2, Macaca fascicularis PDGFRb.mmh; assay: SPR, mAb captured, 37 C
Procedure: as §1

[18] = biological target: T1, hPDGFRb.mmh; assay: Octet BLI cross-competition, 25 C; hPDGFRb.mmh on anti-Penta-His tips pre-saturated with mAb-1 H4H3094P (row 5)
Procedure: as §2

B1: H1M3374N (antibody, V domains shown)
VH: QLQLQESGPGLVKPSETLSLTCTVSGGSITSSSYYWGWIRQPPGKGLEWIGSIYYRGSTNYNPSLKSRVTISVDSSKNQFYLKVSSVTAVDTAVYYCARQNGAARPSWFDPWGQGTLVTVSS
VL: EIVLTQSPDTISLSPGERATLSCRASQSISSIYLAWYQQKPGQAPRLLIYGASSRVTGIPDRFSVSGSGTDFTLTISRLEPEDFAVYYCQHYGISPFTFGPGTKVDIR
notes: mouse Fc format; also called H2M3374N
- Kd [1]: 1.99 nM
- koff [1]: 0.000331 s⁻¹
- kon [1]: 167000 M⁻¹ s⁻¹
- t1/2 [1]: 35 min
- Kd [2]: 2.7 nM
- koff [2]: 0.000371 s⁻¹
- kon [2]: 137000 M⁻¹ s⁻¹
- t1/2 [2]: 31 min
- Kd [3]: 0.108 nM
- koff [3]: 0.000107 s⁻¹
- kon [3]: 996000 M⁻¹ s⁻¹
- t1/2 [3]: 108 min
- IC50, blocking PDGF-BB (250 pM) activation, SRE-luciferase [4]: 3.1e-10 M
- IC50, blocking PDGF-DD (400 pM) activation, SRE-luciferase [4]: 2.1e-10 M
- Kd [5]: 1.71 nM
- koff [5]: 0.00079 s⁻¹
- kon [5]: 463000 M⁻¹ s⁻¹
- t1/2 [5]: 15 min
- % Maximum Blocking [6]: 88%
- IC50 [6]: 0.077 nM

B4: H2M3373N (antibody, V domains shown)
VH: EVQLRDSGGGLVQPGGSLRLSCVASGFTFSSYWMSWVRQAPGKGLEWVVNINRDGSEKYYVDSVKGRFIISRDNTKNSLYLQMESLRAEDTAVYYCARDPPYHLYGMDVWGQGTTVTVSS
VL: DIQMTQSPSSLSASVGDRVTITCRTSQGIRVDLAWYQQKPGKAPERLIYAASSLQSGVPSRFSGGGSGTEFTLTVSSLQPEDFATYYCLQHHNFPYTFGQGTKLEIK
notes: mouse Fc (H2M prefix; isotype not spelled out)
- Kd [1]: 12.4 nM
- koff [1]: 0.00235 s⁻¹
- kon [1]: 189000 M⁻¹ s⁻¹
- t1/2 [1]: 5 min
- Kd [2]: 18.3 nM
- koff [2]: 0.00238 s⁻¹
- kon [2]: 130000 M⁻¹ s⁻¹
- t1/2 [2]: 5 min
- Kd [3]: 0.507 nM
- koff [3]: 0.00024 s⁻¹
- kon [3]: 473000 M⁻¹ s⁻¹
- t1/2 [3]: 48 min
- IC50, blocking PDGF-BB (250 pM) activation, SRE-luciferase [4]: 7e-11 M
- IC50, blocking PDGF-DD (400 pM) activation, SRE-luciferase [4]: 9.2e-11 M
- Kd [5]: 29.8 nM
- koff [5]: 0.0122 s⁻¹
- kon [5]: 410000 M⁻¹ s⁻¹
- t1/2 [5]: 0.9 min
- % Maximum Blocking [6]: 80%
- IC50 [6]: 0.9 nM

Further lines, results first:

- Response of mAb-2 Binding to hPDGFRβ.mmh Pre-Complexed with mAb-1 (nm) [7]: 0.01 nm
- Response of mAb-2 Binding to hPDGFRβ.mmh Pre-Complexed with mAb-1 (nm) [8]: -0.01 nm
- Percent Internalization (Relative to Control I) [9]: 66%
- Response of mAb-2 Binding to hPDGFRβ.mmh Pre-Complexed with mAb-1 (nm) [10]: -0.01 nm
- Response of mAb-2 Binding to hPDGFRβ.mmh Pre-Complexed with mAb-1 (nm) [11]: 0.24 nm
- Response of mAb-2 Binding to hPDGFRβ.mmh Pre-Complexed with mAb-1 (nm) [12]: 0.23 nm
- Response of mAb-2 Binding to hPDGFRβ.mmh Pre-Complexed with mAb-1 (nm) [13]: 0.24 nm
- Kd [1]: 3.41 nM
- koff [1]: 8.92e-05 s⁻¹
- kon [1]: 26100 M⁻¹ s⁻¹
- t1/2 [1]: 130 min
- Kd [14]: 0.652 nM
- koff [14]: 2.9e-05 s⁻¹
- kon [14]: 44500 M⁻¹ s⁻¹
- t1/2 [14]: 398 min
- Kd [2]: 3.75 nM
- koff [2]: 0.000108 s⁻¹
- kon [2]: 28800 M⁻¹ s⁻¹
- t1/2 [2]: 107 min
- Response of mAb-2 Binding to hPDGFRβ.mmh Pre-Complexed with mAb-1 (nm) [15]: 0.2 nm
- IC50, blocking PDGF-BB (250 pM) activation, SRE-luciferase [4]: 6.8e-10 M
- IC50, blocking PDGF-DD (400 pM) activation, SRE-luciferase [4]: 6.6e-10 M
- Kd [5]: 6.65 nM
- koff [5]: 0.000339 s⁻¹
- kon [5]: 50900 M⁻¹ s⁻¹
- t1/2 [5]: 34 min
- Kd [16]: 0.632 nM
- koff [16]: 4.5e-05 s⁻¹
- kon [16]: 71300 M⁻¹ s⁻¹
- t1/2 [16]: 256 min
- Kd [17]: 7.62 nM
- koff [17]: 0.000392 s⁻¹
- kon [17]: 51400 M⁻¹ s⁻¹
- t1/2 [17]: 29 min
- Response of mAb-2 Binding to hPDGFRβ.mmh Pre-Complexed with mAb-1 (nm) [18]: 0.27 nm
- % Maximum Blocking [6]: 86%
- IC50 [6]: 0.45 nM
B2: H4H3310N (antibody, human IgG4, V domains shown)
VH: EVQLLESGGDLVQPGGSLRLSCAASGITFSSFAMSWVRQAPGKGLEWVSTVSVSAGITYYADSVKGRFTISRDNSKNTLYLQMNSLRAEDTAIYYCAKSSCTTNSCPAYFDYWGLGTLVTVSS
VL: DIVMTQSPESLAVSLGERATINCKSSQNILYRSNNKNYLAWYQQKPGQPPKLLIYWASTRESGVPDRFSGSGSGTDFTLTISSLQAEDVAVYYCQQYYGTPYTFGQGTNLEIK
notes: human IgG4 Fc (H4H prefix)

- Kd [1]: 7.41 nM
- koff [1]: 0.000341 s⁻¹
- kon [1]: 46100 M⁻¹ s⁻¹
- t1/2 [1]: 34 min
- Kd [2]: 30 nM
- koff [2]: 0.000185 s⁻¹
- kon [2]: 7000 M⁻¹ s⁻¹
- t1/2 [2]: 63 min
- Kd [3]: 0.313 nM
- koff [3]: 3.7e-05 s⁻¹
- kon [3]: 118000 M⁻¹ s⁻¹
- t1/2 [3]: 313 min
- IC50, blocking PDGF-BB (250 pM) activation, SRE-luciferase [4]: 1.8e-10 M
- IC50, blocking PDGF-DD (400 pM) activation, SRE-luciferase [4]: 1.7e-10 M
- Kd [5]: 6.17 nM
- koff [5]: 0.000844 s⁻¹
- kon [5]: 137000 M⁻¹ s⁻¹
- t1/2 [5]: 14 min
- % Maximum Blocking [6]: 79%
- IC50 [6]: 0.13 nM
B3: H2M3368N (antibody, V domains shown)
VH: QVQLQQWGAGLLKPSETLSLTCAVYGGSFSGYYWTWIRQSPGKGLEWMGEISHRGTTNYNPSLKSRLTISLDTSNNHFSLKLSSVTAADTAVYYCAREERLGMGYDYFGLDVWGQGTTVTVSS
VL: EIVLTQSPATLSLSPGERATLSCRASQSVSTYLTWYQQKPGQAPRLLIYDASNRATGIPARFSGSGSGTDFTLTISSLEPEDCAVYYCQQRSIWITFGQGTRLEIK
notes: as for B4
